Laboratory results from article PMC5987717.

Assays:
Assay in all cases: FRET or BRET
[1] = molecular target: hRIIβ-RLuc8 (PKA regulatory subunit RIIβ conjugated to mutant Renilla luciferase) (human) (UniProt P31323)
[2] = molecular target: hRIβ-Rluc8 (PKA regulatory subunit RIβ conjugated to mutant Renilla luciferase) (human) (UniProt P31321)
[3] = molecular target: hRIIα-RLuc8 (PKA regulatory subunit RIIα conjugated to mutant Renilla luciferase) (human) (UniProt P13861)
hRIIα-RLuc8 (PKA regulatory subunit RIIα conjugated to mutant Renilla luciferase) (human), sequence (P13861 whole entry, change not shown): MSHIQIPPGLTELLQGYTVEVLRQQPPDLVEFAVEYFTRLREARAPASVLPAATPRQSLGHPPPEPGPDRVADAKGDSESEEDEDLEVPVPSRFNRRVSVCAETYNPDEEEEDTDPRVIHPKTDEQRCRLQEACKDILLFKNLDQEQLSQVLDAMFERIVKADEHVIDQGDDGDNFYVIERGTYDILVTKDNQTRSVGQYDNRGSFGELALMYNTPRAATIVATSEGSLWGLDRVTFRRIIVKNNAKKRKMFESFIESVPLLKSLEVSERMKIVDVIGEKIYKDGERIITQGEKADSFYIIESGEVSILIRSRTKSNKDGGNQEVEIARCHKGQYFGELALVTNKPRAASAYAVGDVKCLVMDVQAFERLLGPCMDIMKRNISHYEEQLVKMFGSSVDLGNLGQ

hRIIβ-RLuc8 (PKA regulatory subunit RIIβ conjugated to mutant Renilla luciferase) (human), sequence (P31323 whole entry, change not shown): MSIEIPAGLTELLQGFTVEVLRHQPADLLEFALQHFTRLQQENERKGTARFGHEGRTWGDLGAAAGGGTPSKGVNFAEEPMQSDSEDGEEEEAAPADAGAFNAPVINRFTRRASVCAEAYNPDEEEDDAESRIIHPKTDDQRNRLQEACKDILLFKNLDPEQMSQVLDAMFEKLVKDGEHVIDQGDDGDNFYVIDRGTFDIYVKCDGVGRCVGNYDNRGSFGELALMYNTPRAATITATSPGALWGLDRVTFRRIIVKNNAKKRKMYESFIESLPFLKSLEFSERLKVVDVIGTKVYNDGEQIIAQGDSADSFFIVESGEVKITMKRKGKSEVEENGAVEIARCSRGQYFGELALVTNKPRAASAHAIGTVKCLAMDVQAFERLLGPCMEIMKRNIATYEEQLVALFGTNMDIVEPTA
hRIβ-Rluc8 (PKA regulatory subunit RIβ conjugated to mutant Renilla luciferase) (human), sequence (P31321 whole entry, change not shown): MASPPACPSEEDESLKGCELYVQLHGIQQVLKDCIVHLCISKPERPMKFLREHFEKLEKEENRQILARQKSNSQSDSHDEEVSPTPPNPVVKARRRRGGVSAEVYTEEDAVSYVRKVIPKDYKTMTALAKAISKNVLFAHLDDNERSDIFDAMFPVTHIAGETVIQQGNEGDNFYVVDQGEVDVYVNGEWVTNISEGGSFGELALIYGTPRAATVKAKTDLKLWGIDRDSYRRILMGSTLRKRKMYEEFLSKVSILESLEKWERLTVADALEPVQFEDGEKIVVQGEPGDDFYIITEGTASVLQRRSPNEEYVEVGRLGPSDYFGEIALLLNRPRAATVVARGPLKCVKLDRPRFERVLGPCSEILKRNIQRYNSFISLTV

Substance: GFP-hCα (GFP-tagged PKA catalytic subunit Cα) (from UniProt P17612 1-351) (natural protein)
- BRET signal left after Fsk/IBMX (percent of the unstimulated sensor) [1]: 28%
- BRET signal left after Fsk/IBMX (percent of the unstimulated sensor) [2]: 75%
- BRET signal left after Fsk/IBMX (percent of the unstimulated sensor) [3]: 25%
